B1: bifunctional acetaldehyde-alcohol dehydrogenase AdhE (Streptococcus pneumoniae), native spirosomes (enzyme)
chain: MKAMEENMADKKTVTPEEKKLVAEKHVDELVQKALVALEEMRKLNQEQVDYIVAKASVAALDAHGELALHAFEETGRGVFEDKATKNLFACEHVVNNMRHTKTVGVIEEDDVTGLTLIAEPVGVVCGITPTTNPTSTAIFKSLISLKTRNPIVFAFHPSAQESSAHAARIVRDAAIAAGAPENCVQWITQPSMEATSALMNHEGVATILATGGNAMVKAAYSCGKPALGVGAGNVPAYVEKSANIRQAAHDIVMSKSFDNGMVCASEQAVIIDKEIYDEFVAEFKSYHTYFVNKKEKALLEEFCFGVKANSKNCAGAKLNADIVGKPATWIAEQAGFTVPEGTNILAAECKEVGENEPLTREKLSPVIAVLKSESREDGITKARQMVEFNGLGHSAAIHTADEELTKEFGKAVKAIRVICNSPSTFGGIGDVYNAFLPSLTLGCGSYGRNSVGDNVSAINLLNIKKVGRRRNNMQWMKLPSKTYFERDSIQYLQKCRDVERVMIVTDHAMVELGFLDRIIEQLDLRRNKVVYQIFADVEPDPDITTVNRGTEIMRAFKPDTIIALGGGSPMDAAKVMWLFYEQPEVDFRDLVQKFMDIRKRAFKFPLLGKKTKFIAIPTTSGTGSEVTPFAVISDKANNRKYPIADYSLTPTVAIVDPALVLTVPGFVAADTGMDVLTHATEAYVSQMASDYTDGLALQAIKLVFENLESSVKNADFHSREKMHNASTIAGMAFANAFLGISHSMAHKIGAQFHTIHGRTNAILLPYVIRYNGTRPAKTATWPKYNYYRADEKYQDIARMLGLPASTPEEGVESYAKAVYELGERIGIQMNFRDQGIDEKEWKEHSRELAFLAYEDQCSPANPRLPMVDHMQEIIEDAYYGYKERPGRRK
notes: also called spirosin; 'plaited' filaments
B2: AdhE^S.pneumoniae, C-terminally hexahistidine-tagged, expressed in E. coli (enzyme)
chain: MKAMEENMADKKTVTPEEKKLVAEKHVDELVQKALVALEEMRKLNQEQVDYIVAKASVAALDAHGELALHAFEETGRGVFEDKATKNLFACEHVVNNMRHTKTVGVIEEDDVTGLTLIAEPVGVVCGITPTTNPTSTAIFKSLISLKTRNPIVFAFHPSAQESSAHAARIVRDAAIAAGAPENCVQWITQPSMEATSALMNHEGVATILATGGNAMVKAAYSCGKPALGVGAGNVPAYVEKSANIRQAAHDIVMSKSFDNGMVCASEQAVIIDKEIYDEFVAEFKSYHTYFVNKKEKALLEEFCFGVKANSKNCAGAKLNADIVGKPATWIAEQAGFTVPEGTNILAAECKEVGENEPLTREKLSPVIAVLKSESREDGITKARQMVEFNGLGHSAAIHTADEELTKEFGKAVKAIRVICNSPSTFGGIGDVYNAFLPSLTLGCGSYGRNSVGDNVSAINLLNIKKVGRRRNNMQWMKLPSKTYFERDSIQYLQKCRDVERVMIVTDHAMVELGFLDRIIEQLDLRRNKVVYQIFADVEPDPDITTVNRGTEIMRAFKPDTIIALGGGSPMDAAKVMWLFYEQPEVDFRDLVQKFMDIRKRAFKFPLLGKKTKFIAIPTTSGTGSEVTPFAVISDKANNRKYPIADYSLTPTVAIVDPALVLTVPGFVAADTGMDVLTHATEAYVSQMASDYTDGLALQAIKLVFENLESSVKNADFHSREKMHNASTIAGMAFANAFLGISHSMAHKIGAQFHTIHGRTNAILLPYVIRYNGTRPAKTATWPKYNYYRADEKYQDIARMLGLPASTPEEGVESYAKAVYELGERIGIQMNFRDQGIDEKEWKEHSRELAFLAYEDQCSPANPRLPMVDHMQEIIEDAYYGYKERPGRRK
notes: not shown: His6, C-terminal, kept

How the values were obtained:
[1] = target: the molecule itself; test: SEC + other: negative-stain electron microscopy
[2] = target: the molecule itself; test: negative-stain electron microscopy; Talon eluate (TBS, 140 mM imidazole) of recombinant His-tagged protein applied at once to carbon grids, 2% uranyl acetate

| Protein | binding result [1] | binding result [2] |
| --- | --- | --- |
| B1 | binds | – |
| B2 | – | binds |
